The text below walks through data of paper PMC12263834, “Structural basis of Fanconi anemia pathway activation by FANCM”.

Data set [1] deals with FANCA (FA core complex component, in cells) [human (endogenous in HCT116 or HEK293 cells)]. Nature of the data set: co-immunoprecipitation (quantified Western blot). As to conditions: cell-based; n = 3 independent co-immunoprecipitation experiments; parent: 100; read off a plot. A general note: A western blot detects proteins with antibodies after separation by electrophoresis.

Data set [2] deals with FANCE (FA core complex component, in cells) [human (endogenous in HCT116 or HEK293 cells)]. As to the kind of experiment: co-immunoprecipitation (quantified Western blot). As to conditions: cell-based; n = 3 independent co-immunoprecipitation experiments; parent: 100; read off a plot.
Data set [3] concerns the target T1, FANCM translocase domain (8HIS-FANCM 73-644) (human, UniProt Q8IYD8 73-644).
T1 sequence: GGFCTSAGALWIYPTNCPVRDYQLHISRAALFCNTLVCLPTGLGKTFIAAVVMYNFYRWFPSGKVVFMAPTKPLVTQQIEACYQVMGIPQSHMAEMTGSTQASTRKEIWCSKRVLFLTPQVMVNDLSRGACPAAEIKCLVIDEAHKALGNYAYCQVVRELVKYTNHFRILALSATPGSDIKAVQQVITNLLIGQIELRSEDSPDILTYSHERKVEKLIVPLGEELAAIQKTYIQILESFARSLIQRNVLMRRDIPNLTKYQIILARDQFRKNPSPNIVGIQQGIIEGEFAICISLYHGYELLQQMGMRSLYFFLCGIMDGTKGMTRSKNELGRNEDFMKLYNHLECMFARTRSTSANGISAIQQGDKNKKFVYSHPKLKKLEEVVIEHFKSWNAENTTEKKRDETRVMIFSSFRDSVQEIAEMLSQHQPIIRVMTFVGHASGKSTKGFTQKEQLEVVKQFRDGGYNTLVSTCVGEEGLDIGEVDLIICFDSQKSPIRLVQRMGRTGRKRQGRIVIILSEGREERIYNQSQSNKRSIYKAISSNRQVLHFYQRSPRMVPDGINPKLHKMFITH
As to the kind of experiment: crystal structure (2.2 A); 5 mM MgCl2 in protein buffer; Fluorescence anisotropy: 25 mM Tris-HCl pH 8, 20 mM NaCl, 2 mM MnCl2, 0.1 mg/ml BSA, temperature not stated; crystals N-terminal domain: 0.2 M NaCl, 0.1 M HEPES pH 7.0, 32.5% PEG 400, room temperature; CTD: 25% PEG3350, 0.1 M diammonium hydrogen phosphate. As to conditions: protein: recombinant; tags: 8xHis N-terminal; hairpin, 14 bp stem, TTAG loop, 11 nt 3' flap. On the technique in general: In fluorescence polarisation assays a small probe gives low polarisation when free and higher when bound to something large.

For a further data set, the target named is T2, FANCM-CTD;FAAP24 (human?;human?, UniProt Q8IYD8;Q9BTP7 1799-2048;1-215, |).
T2 sequence 1: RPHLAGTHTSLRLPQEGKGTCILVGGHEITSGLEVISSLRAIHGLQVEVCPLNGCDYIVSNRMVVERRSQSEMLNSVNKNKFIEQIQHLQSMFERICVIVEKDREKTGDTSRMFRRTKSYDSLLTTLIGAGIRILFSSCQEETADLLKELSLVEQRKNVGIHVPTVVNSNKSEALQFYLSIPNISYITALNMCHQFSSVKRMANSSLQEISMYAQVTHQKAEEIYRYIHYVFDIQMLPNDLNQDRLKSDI
T2 sequence 2: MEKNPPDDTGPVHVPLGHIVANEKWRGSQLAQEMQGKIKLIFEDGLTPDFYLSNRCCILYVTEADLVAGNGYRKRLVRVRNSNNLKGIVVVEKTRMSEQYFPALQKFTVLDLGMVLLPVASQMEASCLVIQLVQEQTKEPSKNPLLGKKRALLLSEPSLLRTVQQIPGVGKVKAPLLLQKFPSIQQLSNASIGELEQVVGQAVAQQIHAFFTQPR
As to the kind of experiment: crystal structure (2.4 A); Mg2+ site in FAAP24; duplex contacted, splayed arms disordered; Fluorescence anisotropy: 25 mM Tris-HCl pH 8, 20 mM NaCl, 2 mM MnCl2, 0.1 mg/ml BSA, temperature not stated; crystals N-terminal domain: 0.2 M NaCl, 0.1 M HEPES pH 7.0, 32.5% PEG 400, room temperature; CTD: 25% PEG3350, 0.1 M diammonium hydrogen phosphate. The following applies: protein: recombinant;recombinant; tags: GST (PreScission cleaved);HIS; copies: 1;1; 17 bp duplex with splayed arms: 3' TTTT on SA1 and 5' TTTT on SA2 at the same end.

Regarding “Flag-FANCM-wildtype (expressed in cells) mutant P999L [human] / FANCA (FA core complex component, in cells) [human (endogenous in HCT116 or HEK293 cells)] chain 1 P999L”, in data set [1], the percent of parent (% of wild-type FANCM) stood at 14.

For the molecule “Flag-FANCM-wildtype (expressed in cells) mutant P999L [human] / FANCE (FA core complex component, in cells) [human (endogenous in HCT116 or HEK293 cells)] chain 1 P999L”, the percent of parent (% of wild-type FANCM) in data set [2] came out at 10.

On to “Flag-FANCM-wildtype (expressed in cells) mutant V990A [human] / FANCA (FA core complex component, in cells) [human (endogenous in HCT116 or HEK293 cells)] chain 1 V990A”, for which the percent of parent (% of wild-type FANCM) in data set [1] worked out at 40.

Regarding “Flag-FANCM-wildtype (expressed in cells) mutant V990A [human] / FANCE (FA core complex component, in cells) [human (endogenous in HCT116 or HEK293 cells)] chain 1 V990A”, the percent of parent (% of wild-type FANCM) in data set [2] was 27.

For the molecule GGTATGAGCACTGCTTAGGCAGTGCTCATACCGCATGGAGCTG (structured_DNA) [Hairpin15 (3' flap hairpin)], the binding result in data set [3] is given as “binds”.

B1: SA1/SA2 splayed duplex (dsDNA)
DNA 1: TACGCATCATCGCTCGGTTTT
DNA 2: TTTTCCGAGCGATGATGCGTA
On to B1, for which, in the data set with FANCM-CTD;FAAP24, the binding result was “binds”.
